{"source": "paper PMC3981467", "settings": "phosphorylation at S183", "data": [{"substance": "p27/Kip1: S183A", "values": [{"measurement": "other", "result": "no change"}]}]}
